Measurements: patent US6376210B1, “Methods and compositions for assaying analytes” (General Atomics, priority 1999, dated 2002)

Test system: human SAH hydrolase
Assay: SAH hydrolase activity assay, hydrolytic direction (kinetic constants for SAH)
Format: biochemical
Details: substrate SAH; wild type vs mutant SAH hydrolase
Procedure: The cell-free extracts from colonies that inducibly overexpressed mutant SAH hydrolase proteins were chromatographed on a monoQ column (HR5/5) equipped with FPLC system. Proteins were eluted with a linear gradient of NaCl from 0 to 1 M in 10 mM sodium phosphate buffer, pH 7.0 over 35 min. The major protein peak that eluted at the same or close retention time as that of the wild type SAH hydrolase was collected. An aliquot collected mutant SAH hydrolase (1-10 μg) was incubated with [^3H]SAH (10 mCi/mmole, 200 μM) and 30 μM of 5, 5′-dithiobis (2-nitrobenzoic acid) (DTNB) at room temperature for 5-30 min.
The reaction solution was filtered through a membrane of molecular weight cut-off at 30,000 by centrifugation. The filtrate was measured at 412 nm for Hcy formation (enzyme activity) and the [^3H] radioactivity on the membrane was measured by scintillation counting after membrane washing with 1 ml of 50 mM phosphate buffer, pH 7.0.
The mutant hydrolases that show high radioactivity on the membrane and low O.D. at 412 nm of the filtrate relative to the wild type enzyme were selected as candidates for further characterization including determination of Km or Kd and binding energy (ΔG).
The assay of SAH hydrolase activity in the hydrolytic direction was performed as described in Yuan et al., J. Biol Chem., 271:28008-28016, 1996). The assay measures the hydrolysis of SAH into Ado and Hcy. The reaction product Hcy was derivatized by thiol specific reagent DTNB for colometric determination at 412 nm. The assay for SAH hydrolase in the synthetic direction was measured by the formation of SAH from substrate Ado and Hcy using HPLC (see, Yuan et al., J. Biol. Chem., 268:17030-17037 (1993). One unit of the enzyme activity was defined as the amount of enzyme that can hydrolyze or synthesize 1 μmole of SAH/min/mg.

Row | Molecule | Kcat (SAH) | Km
1 | wild type: wild type human placental SAH hydrolase (SEQ ID No. 1), recombinant from E. coli (protein, listed as Homo sapiens, Human S-adenosylhomocysteine hydrolase protein sequence) MSDKLPYKVADIGLAAWGRKALDIAENEMPGLMRMRERYSASKPLKGARIAGCLHMTVETAVLIETLVTLGAEVQWSSCNIFSTQNHAAAAIAKAGIPVYAWKGETDEEYLWCIEQTLYFKDGPLNMILDDGGDLTNLIHTKYPQLLPGIRGISEETTTGVHNLYKMMANGILKVPAINVNDSVTKSKFDNLYGCRESLIDGIKRATDVMIAGKVAVVAGYGDVGKGCAQALRGFGARVIITEIDPINALQAAMEGYEVTTMDEACQEGNIFVTTTGCIDIILGRHFEQMKDDAIVCNIGHFDVEIDVKWLNENAVEKVNIKPQVDRYRLKNGRRIILLAEGRLVNLGCAMGHPSFVMSNSFTNQVMAQIELWTHPDKYPVGVHFLPKKLDEAVAEAHLGKLNVKLTKLTEKQAQYLGMSCDGPFKPDHYRY | 3.8 S^−1 | 7.9 µM
2 | F302S: mutant human SAH hydrolase, Phe302 to Ser; substrate trapping enzyme (protein, UniProt P23526 2-432, looked up, variant F302S) Adenosylhomocysteinase: SDKLPYKVADIGLAAWGRKALDIAENEMPGLMRMRERYSASKPLKGARIAGCLHMTVETAVLIETLVTLGAEVQWSSCNIFSTQDHAAAAIAKAGIPVYAWKGETDEEYLWCIEQTLYFKDGPLNMILDDGGDLTNLIHTKYPQLLPGIRGISEETTTGVHNLYKMMANGILKVPAINVNDSVTKSKFDNLYGCRESLIDGIKRATDVMIAGKVAVVAGYGDVGKGCAQALRGFGARVIITEIDPINALQAAMEGYEVTTMDEACQEGNIFVTTTGCIDIILGRHFEQMKDDAIVCNIGHSDVEIDVKWLNENAVEKVNIKPQVDRYRLKNGRRIILLAEGRLVNLGCAMGHPSFVMSNSFTNQVMAQIELWTHPDKYPVGVHFLPKKLDEAVAEAHLGKLNVKLTKLTEKQAQYLGMSCDGPFKPDHYRY | 0.1 S^−1 | 1 µM
